Results on 7 substances are retold here after PMC5834517.

Test [1] has as its target WT FcγRIIIa (glycosylated, expressed by HEK293 cells) (UniProt P08637).
The target of test [2] is Mut FcγRIIIa (engineered, non-glycosylated Fcγ receptor IIIa) (UniProt P08637). In words: SPR; van't Hoff analysis: temperature dependence of KD; Mut FcγRIIIa on the surface, antibody fractions as analyte. A general note: Surface plasmon resonance follows binding to a sensor surface in real time, without labels.
Test [3] concerns the target Mut FcγRIIIa (non-glycosylated). In words: SPR; Biacore T200; FcγRIIIa (WT or Mut) captured on a Ni2+-loaded NTA sensor chip at 350 RU; Rituximab fractions injected as analyte at 30 μL/min; PBS with 0.005% Tween-20; global fit, 1:1 Langmuir model; KD = koff/kon.

pKd: −log10 of the molar value.

On to “Rituximab (Roche), before separation (antibody)”, for which, in test [1], the EC50 of FcγRIIIa activation (NFAT-driven luciferase in Jurkat/FcγRIIIa/NFAT-Luc cells with Daudi cells; corresponds to ADCC) is 0.13 µg/mL.
In the case of “Rituximab fraction Peak 1 of the FcγRIIIa column (antibody)”, in test [1], the EC50 of FcγRIIIa activation (NFAT-driven luciferase in Jurkat/FcγRIIIa/NFAT-Luc cells with Daudi cells; corresponds to ADCC) turned out to be 0.2 µg/mL. This substance showed a dH in test [2] of -13.3 kcal/mol.
In test [1], “Rituximab fraction Peak 2 of the FcγRIIIa column (antibody)” yielded an EC50 of FcγRIIIa activation (NFAT-driven luciferase in Jurkat/FcγRIIIa/NFAT-Luc cells with Daudi cells; corresponds to ADCC) of 0.19 µg/mL. In test [2], this substance displayed a dH of -13.3 kcal/mol.
Regarding “Rituximab fraction Peak 3 of the FcγRIIIa column (antibody)”, the EC50 of FcγRIIIa activation (NFAT-driven luciferase in Jurkat/FcγRIIIa/NFAT-Luc cells with Daudi cells; corresponds to ADCC) in test [1] is 0.05 µg/mL. In test [2], this substance gave a dH of -13.1 kcal/mol.
On to “Rituximab, peak 1 of the FcγRIIIa-immobilized column (antibody)”, for which the pKd (in general, −log10 of the Kd, conventionally taken in molar units) in test [3] was 5.83.
“Rituximab, peak 2 of the FcγRIIIa-immobilized column (antibody)”: in test [3], the pKd was 6.00.
The same measure, in the same setting: with “Rituximab, peak 3 of the FcγRIIIa-immobilized column (antibody)” the figure was 6.15.
